The text below walks through data of patent US7179889B2, “Propionicin T1 polypeptide, a bacteriocin from Propionibacterium thoenii” (Provisage As, priority 2001, dated 2007).

“Also recorded” adds a separate entry of the source.

Data set [1] deals with Listeria monocytogenes. To be noted: food-borne pathogen; cited from earlier work.
The subject of data set [2] is Lactobacillus sake NCDO 2714. Description: overlay assay, zones of growth inhibition around producer colonies. The data set is classed as cell-based. To be noted: bacteriocin. The procedure: (§1) Screening for antimicrobial activity. Colonies of strains of propionibacteria were grown on agar plates for 72 to 120 hr. A lawn of 5 ml GM17 soft agar containing 500 μl of a fresh culture of the indicator organisms was then poured over the plates. After incubation for 24 to 48 hr at 30° C., the colonies were examined for zones of growth inhibition.

The test system of data set [3] is Propionibacterium freudenreichii. Kind of data set: overlay assay, ten strains of Propionibacterium freudenreichii. The data set is classed as cell-based. The note with it: bacteriocin. The method, then:
as §1

A short description of data set [4]: stability of propionicin T1 (heat, acid, storage). The data set is classed as physicochemical. The procedure: (§2) Bacteriocin assay. Antimicrobial activity was determined by a microtiter plate assay (8). Each well of the microtiter plate contained 50 μl of twofold serial dilutions in SLB or GM17 of the bacteriocin samples, and 150 μl of a 100-fold-diluted fresh overnight culture of the indicator strain. The plates were incubated at 30° C. for 24 to 48 hr, and growth inhibition of the indicator organisms was measured spectrophotometrically at 620 nm with a microtiter plate reader. One bacteriocin unit (BU) was defined as the amount of bacteriocin that inhibited the growth of the indicator organism by 50% as compared with a control culture without bacteriocin.
Stability of propionicin T1. The stability of the peptide was tested, by exposing the bacteriocin (0.3 M NaCl eluate from the cation exchange column) to temperatures of 60° C. and 100° C. for 15 min and to pH 2.5 for one hour. […] Thus, propionicin T1 is heat stable and acid stable.

Data set [5] deals with P. acidipropionici ATCC 4965. Kind of data set: effect of the bacteriocin on the viability of sensitive cells. The format is cell-based, Propionibacterium acidipropionici. The method, then:
Effect of the bacteriocin on the viability of sensitive cells. Partially purified bacteriocin from P. thoenii 419 eluted in 0.3 M NaCl from an ion-exchange column was added in variable amounts to a 48 hr culture of P. acidipropionici grown in GM17, diluted 100-fold. Optical density at 620 nm and viable count (by dilution and plate counting) were determined at time intervals.
The effect of propionicin T1 on viability of sensitive cells. Several experiments were performed to show the effect of propionicin T1 on the viability of the indicator cells. Cultures of P. acidipropionici ATCC 4965 were exposed to different amounts of partially purified propionicin T1. […] More than 99% of the cells were killed after 40 hr (FIG. 2A). The same result was also obtained using 100 or 4000 BU/ml. […] This increase was followed by a decrease in optical density (FIG. 2B).

The test system of data set [6] is all strains of Propionibacterium acidipropionici tested. Kind of data set: inhibition spectrum of propionicin T1. The format is cell-based. The method, then: as §1, §2
Data set [7] deals with all strains of Propionibacterium jensenii tested. Description: inhibition spectrum of propionicin T1. The format is cell-based. The procedure: as §1, §2
The test system of data set [8] is all strains of Propionibacterium thoenii tested. Description: inhibition spectrum of propionicin T1. The format is cell-based. The method, then:
as §1, §2

In the case of nisin, the “activity against Listeria monocytogenes” value in data set [1] was “not very sensitive”.

For the molecule “pediocin PA1 (KYYGNGVTCGKHSCSVDWGKATTCIINNGAMAWATGGHQGNHKC; Bacteriocin pediocin PA-1; UniProt P29430 19-62, looked up) [antibacterial protein produced by Pediococcus acidilactici PAC1.0]”, in data set [1], the “activity against Listeria monocytogenes” value is “very active”.

B1: Propionicin T1: new bacteriocin isolated from Propionibacterium thoenii 419 and LMG 2792; prebacteriocin SEQ ID NO:11, N-terminal sequence SEQ ID NO:9 (protein, listed as Propionibacterium thoenii)
chain: MKKTLLRSGTIALATAAAFGASLAAAPSAMAVPGGCTYTRSNRDVIGTCKTGSGQFRIRLDCNNAPDKTSVWAKPKVMVSVHCLVGQPRSISFETK
As for B1, the “activity against Lactobacillus sake NCDO 2714” value in data set [2] was “active”. Further, the “activity against Propionibacterium freudenreichii” value in data set [3] is recorded as “no activity; also recorded: no strains of P. freudenreichii were inhibited”. Further, the “antimicrobial activity after heat exposure” value in data set [4] (60° C. for 15 min, 0.3 M NaCl eluate from cation exchange column) is given as “No reduction in antimicrobial activity”; in data set [4] (100° C. for 15 min, 0.3 M NaCl eluate from cation exchange column), “No reduction in antimicrobial activity”. Further, in data set [4] (pH 2.5 for one hour, 0.3 M NaCl eluate from cation exchange column), the “antimicrobial activity after acid exposure” value is “No reduction in antimicrobial activity”. Moreover, the “bacteriocin activity after storage at room temperature” value in data set [4] (room temperature for 24 hr) is reported as “no effect on the bacteriocin activity”. Also, the “bacteriocin activity after freezing, thawing and storage” value in data set [4] (storage at 4° C. or −20° C. up to six months) is on record as “no effect on the bacteriocin activity”. Further, in data set [5] (100 or 1000 BU/ml culture, FIG. 2B), the “optical density (620 nm) of bacteriocin treated cultures” value was “increase in the optical density for several hours after addition of bacteriocin”. Moreover, in data set [5] (100 or 4000 BU/ml), the “cells killed, other bacteriocin amounts” value was “same result”. Besides, in data set [5] (after 4 hr, plate counting), the viable count result is given as “reduction in viable count”. In data set [5] (after 40 hr, 1000 BU/ml culture, plate counting, partially purified), the cells killed result was “More than 99%”. For the same molecule, the “mode of action on indicator cells” value in data set [5] (plate counting) is listed as “bactericidal effect; also recorded: slow bactericidal mode of action”. For the same molecule, the “activity against Propionibacterium acidipropionici” value in data set [6] is “active”. Moreover, the “activity against Propionibacterium jensenii” value in data set [7] is on record as “active”. Further, the “activity against Propionibacterium thoenii” value in data set [8] is on record as “active”.
